Experiment: soluble on expression in E. coli; label from the status in PepcDB or PDB records

Sequence	soluble on expression in E. coli
MGSDKIHHHHHHILPNDESQKLIVNALINANKTNNAIFLALSGYHEPQVVKNGIIHLYINNVLSETISECTYRPNNDSPLDYQNYFYQISSRFKTGDQVRIEVETKDGKYKANAEATVYEPIEIIKADTIESNHSLSETSESLWIYQATKWKIKLQTPTTNHSQYYRVNIKQTYTYRLTNRKTLQDSTAISTQWECSGYYDTALMDGKPGTPNNSDPIINFIPTINNYYNVFNDAYFTNNQYTMTLDSWYSFLLDNKLYKIKKITGKAIIQYYAISPAEYQYLRAANAYADHDSSNLLETPVIFPNNIKGGIGIFAIENPTETSIPLKSIEDY	not soluble
MIKNGTLKPGDKLLPVHQLAEQFQVGRSAVREALSALRAMGLIEMKQGEGTYVKNFDSSSLTKSLNNRLLMKKEDILNLLEVRKVLEVGAVRVAAAKRTEDNLQNMKHWLDEMAKSIGDEKAGEKADFQFHMGIAESSHNNILLELMNHVSEMIAETIGESRRIILYGEQTTSERLIEEHQVIYDAVLKQDVELAQQAMLDHLTNVEHIVTGKNDINS	not soluble
HKGTLYVVATPLGNLDDMTFRAVNTLRNAGAIACEDTRRTSILLKHFGIEGKRLVSYHSFNEERAVRQVIELLEEGSDVALVTDAGTPAISDPGYTMASAAHAAGLPVV	not soluble
MSLGGNGREKDHASELRSIFSLKKIADAVNGYEEAKYVVFGIPFDNTSSYRRGSKYAPDSIRGAYVNLESYEYSYGIDLLASGMADLGDMEESEDVEYVIDTVESVVSAVMSDGKIPIMLGGEHSITVGAVRALPKDVDLVIVDAHSDFRSSYMGNKYNHACVTRRALDLLGEGRITSIGIRSVSREEFEDPDFRKVSFISSFDVKKNGIDKYIEEVDRKSRRVYISVDMDGIDPAYAPAVGTPEPFGLADTDVRRLIERLSYKAVGFDIVEFSPLYDNGNTSMLAAKLLQVFIASREKYYKEHIEGHHHHHH	soluble
MGSDKIHHHHHHMITVSNVSVQFGKRVLFNDVNLKFTSGNCYGIIGANGAGKSTFLRTIYGDLDPTTGTIALGPGERLSVLSQDHFKWDAYTVMDTVMMGHTVLWDIMKQREVLYAKEDFTDEDGLKVSELEEKFAELDGWNAESDAAMLLSGLGIKEDKHYTLMGELSGKEKVRVMLAQALYGNPDNLLLDEPTNDLDMETVTWLEEYLSNFEHTVLVVSHDRHFLDSVCTHTVDIDYGKINMFAGNYSFWYESSQLALRQQQNQKAKAEEKKKELEEFIRRFSANVAKSKQTTSRKKMLEKLNVEEIKPSSRKYPGIIFTPEREPGNQILEVSGLSKKTEEGVVLFSDVNFNIEKGDKVVFLSRNPRAMTAFFEIINGNMKPDAGQFNWGVTITTAYLPLDNTDFFNTDLNLVDWLSQFGEGNEVYMKGFLGRMLFSGEEVLKKVSVLSGGEKMRCMIARMQLRNANCLILDTPTNHLDLESIQAFNNNLKTYKGNILFSSHDHEFIQTVANRIIELTPNGIIDKMMEYDEYITSDHIKELRAKMYGDK	not soluble
MNGNHSAPAIAIAVIDGCDGLWREVLLGIEEEGIPFRLQHHPAGEVVDSAWQAARSSPLLVGIACDRHMLVVHYKNLPASAPLFTLMHHQDSQAHRNTGNNAARLVKGIPFRDLNSEATGEQQDE	soluble
AIAAIAEKAKGKEWTSTEKSREEDQQASNQPNSIALPGTSAKRTKEKMSVKGSKVLCPKKKAEHTDNPRPQKKIPIPPLPSKLPPVNLIHRDILRAWCQQLKLSSKGQKLDAYKRLCAFAYPNQKDFPSTAKEAKIRKSLQKKLKVEKGETSLQSSETHPPEVALPPVGEPPALENSTALLEGVNTVVVTTSAPEALLASWARISARARTPEAVESPQEASGVRWCVVHGKSLPADTDGWVHLQFHAGQAWVPEKQEGRVSALFLLPASNFPPPHLEDNMLCPKCVHRNKVLIKSLQWE	soluble
MNKAYYIGLMSGTSMDGVDAVLVDFAGEQPQLIGTHTETIPTHLLKGLQRLCLPGTDEINRLGRLDRSVGKLFALAVNNLLAKTKIAKDEIIAIGSHGQTVRHMPNLEVGFTLQIGDPNTIATETGIDVIADFRRKDIALGGQGAPLVPAFHQQTFAQVGKKRVILNIGGIANITYLPGNSEEVLGFDTGPGNTLIDAWVQQVKNESYDKNGAWAASGKTDPQLLAQLLSHPYFSLAYPKSTGRELFNQAWLEQQLSAFNQLNEEDIQSTLLDLTCHSIAQDILKLAQEGELFVCGGGAFNAELMQRLAALLPGYRIDTTSALGVDPKWAEGIAFAWLAMRYQLGLPANLPAVTGASREAILGGRFSAK	soluble
MSLNRDQSDLHIDELLADPFGGNIEIPGSEAVKAEKEQVRLVDVLPEENKEKAIQLAGQIDHKNMQSIVLYGSQAQSKLLNFSHDMINHVQKKDVGEIGEILGELMKKLEQVNPDDLQSKKKGFLARMFGRVSSSLQEVLSKYQKTSVQIDRISLKLEHSKNALISDNKLLEQLYEKNKEYFAALNVYIAAGELKLEELKTKTIPELKQQAESSDHNQMAVQEVNDLIQFADRLDKRVHDLLLSRQITIQSAPQIRLIQNTNQALAEKIQSSIVTAIPLWKNQVAIALTLLRQRNAVDAQQKVSDTTNELLLKNAELLKTNTIETARANERGLVDIDTLKKVQESLISTLEETLTIQEEGRIKRRQAEEELMMMEGDLKQKLITIKEREGHHHHHH	soluble
MAHHHHHHMCADGVDKVPDETDNRETNEKKRPKRKRRYIDIDKMNFDFEEEDFASSSNEELVRRNYVNEEEYTGGYANGYTNEHMNGLPYQKDINMNSEVIRGLLEPPPIPFNDTFQKYNREISDVYVKQKKKSSGTLNIFLESQLLCIDEGAFEKENNFINNHFDNFIMRKLNVVNTTNMQDTTNQNKDLQELLKYLMSWYFSGFYSGRVSMLKELHGE	soluble
MAHHHHHHMHATKSGVTTLSASAGNSDVPVMSAAYEDAARQPNAVFVNVYDIMKSNSWLWSVGLGVHHAGIQVYDKEYQYGRCEEGSGVRAVEPRHSPPHIFREQFFVGQTQLSALEVRKLVARLEQCDTWQGSKYHLVKHNCIHFAQAFCEALLPPHVRVAQMRTALPSTYQSAYMEEVEVDGQQYSLPVLIPPHVSRLSNYATSYLPESALQMLDSMDNPFSTP	soluble
MSLEKVIPVKKNNDYEIYIDDFGNMGEGIGKIDNFTVFVKDAVKGEKVRAKIIKVNKSFAIGKLIDIIEKSQDRTEPVCSIYKKCGGCQLQHLKYTEQLEFKKNKVVECLKRIGKLDLSSVRINETIGMEDPYFYRNKVQLPVGETAGEAKIGFYRERSHEIIEVDKCFIQDDSANEIILLIKRWIKEFNIEGYNEYSGKGTLRHIMIRKAFKTGQIMLVLVTNTENVPHKKELIHMITTEIQGIKGIIQNINNKKTNVILGQREITLWGESTIEDYIGEFKFNISSKSFFQVNPIQTEKLYSAALKYAGLTGKEVVFDAYCGTGTISLFLSQNAKKVYGVEIIPEAIENAKINAKQNGIENTEFIVGKSEEEIPKLIEKGIAPEVVVVDPPRKGCEKSLLHSIAEASPKTIVYVSCDPATLSRDLGILSELGYEVNEVQPVDMFPMTGHVETIVLIKRVDKEGHHHHHH	soluble
MALSLYEKMLHKGMIIKNSNVYEKIKEIDTIIFDKTGTLTYGTPIVTQFIGDSLSLAYAASVEALSSHPIAKAIVKYAKEQGVKILEVKDFKEISGIGVRGKISDKIIEVKKAENNNDIAVYINGEPIASFNISDVPRPNLKDYLEKLKNEGLKIIILSGDKEDKVKELSKELNIQEYYSNLSPEDKVRIIEKLKQNGNKVLMIGDGVNDAAALALADVSVAMGNGVDISKNVADIILVSNDIGTLLGLIKNRKRLSNAIPSN	soluble
MAHHHHHHMASYQYFSYIDLYKVNNVNLDPFTEVFNDKFYLRYIYKWPHMNIITKEIDDHTSGYILGKEEGFGQDYHGHVTALSIEEDSRRTGKGVDLMTEFEKITQIIHKGNFVDLFVRVSNNPAINMYKKLGYVINEEINNYYCGNESALDMRKYLDITNS	soluble
MAHHHHHHMVVVKGTEYYDGRTKNYVDYPITDVLQMVGRAGRPQFDTEGVAQVLCHEPKKGFYRKFLYDPFPVESTLHKQLHVHINAEIVAGTITTRQDAVDYLTWTYLFRRLVKNPSYYGVEDRSPKAVTIFISTLVANVLDELEACGCIASPGDDEEDDVSRKVTGMSAAGGTDDEKDPDALTCTVLGRLCSYYYLSHKTVRYFDAHIGADSSHVDVLKALCEAEEFNELPVRHNEDKLNLVLSQLLPFPINPNNAESPHVKAFLLFQAHFERASLPISDYYTDLKSALDNAVRVVQAMVDITSNNGHLYAALRCMSLLQCMVQGIWWHSSTLLQIPHVTAGMLPVIASRCGNLEHAAQVANSSITALQTLKAVLREDCGLSETQLREAMAAIQGFPLIDVRLCLSRTPDRTSNSGDAEHSDDGSKTAADVTYTLTVHLTRLSVHNKHVVAPHFTKPKDEQYWLVVGNEKTGELIALKRVNRLVNCVELTLSFEWDDEWAEFAEGGAVALSLYVVCDSYVGLDQQYNFSVPVPVDM	soluble
MSTSHDRAVLNQILNPLMPTSDSGIAEIHLESDSLEHPGYELSLQLEREGVALAEGVRLDEAIEKFTKALEVCPKNPSAYNNRAQAYRLQNKPEKALDDLNEALSLAGPKTKTACQAYVQRASIYRLRGDDDKARTDFASAAELGSSFAKMQLVALNPYAAMCNKMLAEVFEKAKTGED	soluble
MLHILCQGTPFEIGYEHGSAAKAVIARSIDFAVDLIRGKTKKTDEELKQVLSQLGRVIEERWPKYYEEIRGIAKGAERDVSEIVMLNTRTEFAYGLKAARDGATTAYCQLPNGALQGQNWDFFSATKENLIRLTIRQAGLPTIKFITEAGIIGKVGFNSAGVAVNYNALHLQGLRPTGVPSHIALRIALESTSPSQAYDRIVEQGGMAASAFIMVGNGHEAFGLEFSPTSIRKQVLDANGRMVHTNHCLLQHGKNEKELDPLPDSWNRHQRMEFLLDGFDGTKQAFAQLWADEDNYPFSICRAYEEGKSRGATLFNIIYDHARREATVRLGRPTNPDEMFVMRFDEEDERSALNARL	soluble
MAAAAARSTSPFEIRHAVTIAAPPEAVFDYVTNPKSWPEWLPSSHALECDDRPMGFGDTFHEHWSTRSGPVDLDWLVIACDRPLLWIGLTQTSFMGPVVVHYTFEAVDDGTRFTRILRNPARPKPPTAEMIERMSTEAELGLGNIKRIVERR	not soluble
MGSDKIHHHHHHMVMGDITRIDTVQQYCDLFEVEALHPLVSVVNCYEVQPIRHSKKLYNIYAVLLKDTDCGTMNYGRSLYDYEKGSMLFIAPGQVMGSDDDGSLHQPAGWALMFHPELLRGTSLAHIIKEYSYFSYNANEALHLSEQERKVVIECINNVAEELRHPIDKHSRSLIIDTMKLLLDRCIRFYDRQFITRENANNDLLARFELLLNNYYHSALPTSKGIPTVQYCADQLCLSTNYFSDLVKKETGMSAIKHIQQKIMDIAKERIMNTQKSISQISDEMGFQYPQHFTRWFKKMEGCTPNEYRNEIIKQAIN	not soluble
GPGSMTIDAVSPLFADISREYGAAFDAAIARNVADALAEDVGSGDQTGRLVPDGAPRRARVIVREDAVLCGVPWFDAVVRAVDPSIEVDWRHREGDRMSADSTVCELRGPARALLTAERNALNFLQLLSGVASATRQYVDRIADTRARILDTRKTLPGLRLAQKYAVRVGGGANQRLALYAGILIKENHIAAAGGVGEALDAAFALNAEVPVQIEVETLDQLRTALAHGARSVLLDNFTLDMMRDAVRVTEGRAVLEVSGGVNFDTVRAIAETGVDRISIGALTKDVRATDYSMRIVE	soluble
MVIATDDLETTCPNCNGSGREEPEPCPKCLGKGVILTAQGSTLLHFIKKHIHE	soluble
MNYHSTNVNEIWDACLRILQDIVDERAYRTWFLPIIPVSIEGDTLTLQVPSQFFCEFLEGNFVEQLRTVLGRVIGPNASLQYNALVDNSSPKYPGTVTLAGCADGGQAAEQFDVNLLHRHM	not soluble
